According to article PMC6312923 (Life Science Alliance, 2018):
Values belong to the molecule of their own block, whether it stands above or below them. Where no end group is shown, it is not given here. TAMRA = carboxytetramethylrhodamine

How the values were obtained:
[1] = system: CRL4Cdt2 (WT): Cdt2-3FLAG with Cul4A, DDB1, Rbx1;PCNA (Homo sapiens;Homo sapiens); experiment: pull-down (DNA beads, Western blot); details: PCNA preloaded by RFC with ATP; no Cdt1; 408 fmol Cdt2 on […] fmol PCNA trimer; biotin-dT in the second strand; single nick by Nb.BbvCI; HBS: 10 mM Hepes pH 7.4, 0.15 M NaCl, 10 mM MgCl2, 0.2 mM EDTA, 0.05% Tween 20; loading with 2 mM ATP, 37 C 1 h; Cdt1/CRL4Cdt2 binding 4 C 1 h
[2] = system: Cdt1-3FLAG;PCNA (Homo sapiens;Homo sapiens); experiment: pull-down (DNA beads, Western blot); details: PCNA preloaded by RFC with ATP; 301 fmol Cdt1 on […] fmol PCNA trimer; biotin-dT in the second strand; single nick by Nb.BbvCI; HBS: 10 mM Hepes pH 7.4, 0.15 M NaCl, 10 mM MgCl2, 0.2 mM EDTA, 0.05% Tween 20; loading with 2 mM ATP, 37 C 1 h; Cdt1/CRL4Cdt2 binding 4 C 1 h
[3] = system: free PCNA; experiment: Binding of free PCNA to Cdt1 or CRL4^Cdt2 on anti-FLAG beads; parameters: species or system human; details: 2 h at 4°C, Western blotting, three independent experiments
Source text: FLAG-tagged Cdt1 (Cdt1-3FLAG) and CRL4^Cdt2 (Cdt2-3FLAG) were expressed in insect cells and purified on anti-FLAG resin (Fig 5A).

[4] = system: MCF7 cells, DNA-damage (CPD) sites; experiment: Recruitment of GFP-Cdt2 constructs to DNA-damage sites in MCF7 cells; type: cell-based, human; details: MCF7, UV-C 50 J/m^2, GFP fusions; two independent experiments
Source text: Figure 2. The C-terminus of Cdt2 mediates Cdt2 recruitment to sites of damage. (A) A schematic drawing of the domain structure of Cdt2 and constructs used. (B) The C-terminal, but not the N-terminal, part of Cdt2 mediates recruitment to DNA damage sites. MCF7 cells transfected with the indicated plasmids were locally UV-C irradiated (50 J/m^2 through 5 μm pore diameter micropore filters), and recruitment of each Cdt2 construct to sites of damage was examined by staining with α-CPD antibody and GFP signal.
For Western blotting, whole-cell lysates were prepared by lysing cell pellets directly in SDS–PAGE buffer. For immunofluorescence, U2OS or HEK293 cells were fixed in 4% paraformaldehyde (PFA; WAKO) for 10 min, permeabilized in 0.25% (vol/vol) Triton X-100 in PBS, and stained with the indicated antibodies as described previously. […] For cyclobutane pyrimidine dimer (CPDs) staining, MCF7 and HeLa cells were fixed in 4% PFA for 10 min, permeabilized in 0.3% Triton X-100 in PBS, and then incubated in 0.5 N NaOH for 5 min for DNA denaturation before immunofluorescence. Alexa488-conjugated anti-mouse and […] anti-rabbit antibodies were used as secondary antibodies with Hoechst 33258 to visualize DNA. […] Protein levels were analysed by ImageJ software.
We used a method to induce DNA photoproducts within localized areas of the cell nucleus as described in Ishii et al (2010). To perform micropore UV irradiation, cells were cultured on cover slips, washed twice with PBS, and subsequently covered with an isopore polycarbonate membrane filter (Millipore) with a pore size of either 3 or 5 μm in diameter, and irradiated. UV irradiation was achieved using a UV lamp (SUV-16, As One, Japan) with a dose rate of 0.4 J/m^2·s, which was monitored with a UV radiometer (UVX Radiometer, UVP) at 254 nm, or with a UV box equipped with a UV-C lamp monitored with a VLX-3W radiometer (Vilber Lourmat) at 254 nm (CX-254 sensor). The filter was removed and cells were either fixed or cultured for the indicated time before fixation, and processed for immunofluorescence. […]

[5] = system: DDB1, Cul4A; experiment: Co-immunoprecipitation of DDB1 / Cul4A with FLAG-tagged Cdt2 constructs; type: cell-based, human; details: anti-FLAG IP, cross-linked cells
Source text: (§1) Before cell lysate preparation, cells were cross-linked.
(§2) Figure 3. […] HEK293 cells were transfected with plasmids expressing the indicated Cdt2 fused to a C-terminal FLAG tag, cross-linked, and precipitated with anti-FLAG antibodies (arrows). […] The bands in the blank lanes for Cul4A blotting correspond to the cross-reacting bands to pre-stained marker. […] HEK293 cells were transfected with the indicated plasmids and treated as in A. * indicates nonspecific bands derived from IgGs. (C) A schematic drawing of the Cdt2 domain structure highlighting the C-terminal PIP box and a sequence alignment of PIP boxes in various organisms. The alanine-changed PIP box mutant of Cdt2 was shown (PIP-3A) together with Cdt1 PIP box. (D) HEK293 cells were transfected with Cdt2^WT or PIP box mutant (Cdt2^PIP-3A) C-terminally fused to a FLAG tag, treated as in B, and Cdt2 was precipitated with anti-FLAG resin.
(§3) Control or Cdt2-FLAG expressing 293 cells that were UV irradiated (50 J/m^2), or not UV irradiated, or in the middle S phase (5 h after release from aphidicolon arrest) were fixed with 0.02% formaldehyde for 10 min, lysed using 0.1% Triton X-100-containing modified cytoskeleton (mCSK) buffer (10 mM Pipes, pH 7.9, 100 mM NaCl, 300 mM sucrose, 0.1% [vol/vol] Triton X-100, 1 mM phenylmethylsulfonyl fluoride, 10 mM β-glycerophosphate, 1 mMNa3VO4, 10 mM NaF), and then sonicated. After centrifugation (120,000g, Beckman Type 45Ti rotor, for 20 min at 4°C), the supernatants were mixed with anti-FLAG antibody-conjugated magnetic beads (M8823; Sigma-Aldrich) for 1 h at 4°C to obtain immunoprecipitates. The precipitate was washed with ice-cold 0.1% Triton X-100 containing mCSK buffer and subsequently suspended in SDS sample buffer.

[6] = system: PCNA; experiment: Co-immunoprecipitation of PCNA with FLAG-tagged Cdt2 constructs; type: cell-based, human; details: cross-linked cells, 3FLAG fusions, no UV
Source text: as §1, §2, §3

[7] = target: T1, full-length human PCNA (recombinant, for peptide binding and crystallography) (human, UniProt P12004 1-261); experiment: fluorescence polarisation; 1 nM labelled peptide mixed with PCNA at 0 to 2 μM; 10 mM Hepes pH 7.5, 125 mM NaCl, 0.5 mM TCEP; non-binding 96-well plates; triplicates; details: both partners purified
T1 construct: PCNA, human, full length; also called recombinant PCNA; source: E. coli Bl21 (DE3), purified as described (Hibbert & Sixma, 2012)
T1 sequence (P12004 whole entry): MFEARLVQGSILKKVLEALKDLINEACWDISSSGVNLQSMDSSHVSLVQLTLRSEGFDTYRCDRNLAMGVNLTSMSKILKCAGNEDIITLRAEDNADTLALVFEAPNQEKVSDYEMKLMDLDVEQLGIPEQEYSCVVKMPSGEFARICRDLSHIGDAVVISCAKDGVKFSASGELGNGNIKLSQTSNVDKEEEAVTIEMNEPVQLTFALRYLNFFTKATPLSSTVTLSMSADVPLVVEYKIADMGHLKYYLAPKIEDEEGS

Molecule: ncDNA beads (singly nicked circular pBluescript II KS(-))
- binding signal (Cdt2 per PCNA trimer) [1]: 2.57
- binding signal (Cdt1 per PCNA trimer) [2]: 2.04

Molecule: CRL4^Cdt2: E3 ligase complex of Cdt2-3FLAG, DDB1, HA-Cul4, His-myc-Rbx1, purified from insect cells
- binding of free PCNA to protein beads [3]: much less

B4: Cdt1^PIP-TAMRA (1–14) (peptide)
peptide: MEQRRVTDFFARRR
modifications: also: TAMRA label, position not given here
notes: Cdt1 N-terminal PIP box peptide, residues 1-14; also called Cdt1 PIP box peptide; source: synthetic peptide (in-house Fmoc synthesis)
- Kd [7]: 7200 ± 200 nM

B5: Cdt2^600–730: C-terminal 130 amino acids of Cdt2 (protein)
chain: KDSLGPTKSSKIEGAGTSISEPPSPISPYASESCGTLPLPLRPCGEGSEMVGKENSSPENKNWLLAMAAKRKAENPSPRSPSSQTPNSRRQSGKKLPSPVTITPSSMRKICTYFHRKSQEDFCGPEHSTEL
modifications: left off: 3FLAG, N-terminal, kept | 3NLS, N-terminal, state not stated | myc, N-terminal, state not stated
notes: C-terminal 130 amino acids of Cdt2
- interaction with PCNA (anti-FLAG IP) [6]: sufficient to mediate the interaction with PCNA

B6: Cdt2^1–700: Cdt2 with the C-terminal 30 amino acids deleted (protein)
chain: MLFNSVLRQPQLGVLRNGWSSQYPLQSLLTGYQCSGNDEHTSYGETGVPVPPFGCTFSSAPNMEHVLAVANEEGFVRLYNTESQSFRKKCFKEWMAHWNAVFDLAWVPGELKLVTAAGDQTAKFWDVKAGELIGTCKGHQCSLKSVAFSKFEKAVFCTGGRDGNIMVWDTRCNKKDGFYRQVNQISGAHNTSDKQTPSKPKKKQNSKGLAPSVDFQQSVTVVLFQDENTLVSAGAVDGIIKVWDLRKNYTAYRQEPIASKSFLYPGSSTRKLGYSSLILDSTGSTLFANCTDDNIYMFNMTGLKTSPVAIFNGHQNSTFYVKSSLSPDDQFLVSGSSDEAAYIWKVSTPWQPPTVLLGHSQEVTSVCWCPSDFTKIATCSDDNTLKIWRLNRGLEEKPGGDKLSTVGWASQKKKESRPGLVTVTSSQSTPAKAPRAKCNPSNSSPSSAACAPSCAGDLPLPSNTPTFSIKTSPAKARSPINRRGSVSSVSPKPPSSFKMSIRNWVTRTPSSSPPITPPASETKIMSPRKALIPVSQKSSQAEACSESRNRVKRRLDSSCLESVKQKCVKSCNCVTELDGQVENLHLDLCCLAGNQEDLSKDSLGPTKSSKIEGAGTSISEPPSPISPYASESCGTLPLPLRPCGEGSEMVGKENSSPENKNWLLAMAAKRKAENPSPRSPSSQTPNSRRQSGKKLPSPVT
modifications: left off: HA, N-terminal, state not stated | 3FLAG, C-terminal, kept
notes: Cdt2 with the C-terminal 30 amino acids deleted
- interaction with PCNA (anti-FLAG IP) [6]: loss of interaction with PCNA

Now from value to molecule, other results behind:

- binding to DDB1 (and Cul4A) [5]: lost its ability to bind DDB1
B1: Cdt2^390–730: C-terminal Cdt2 construct (protein)
chain: LNRGLEEKPGGDKLSTVGWASQKKKESRPGLVTVTSSQSTPAKAPRAKCNPSNSSPSSAACAPSCAGDLPLPSNTPTFSIKTSPAKARSPINRRGSVSSVSPKPPSSFKMSIRNWVTRTPSSSPPITPPASETKIMSPRKALIPVSQKSSQAEACSESRNRVKRRLDSSCLESVKQKCVKSCNCVTELDGQVENLHLDLCCLAGNQEDLSKDSLGPTKSSKIEGAGTSISEPPSPISPYASESCGTLPLPLRPCGEGSEMVGKENSSPENKNWLLAMAAKRKAENPSPRSPSSQTPNSRRQSGKKLPSPVTITPSSMRKICTYFHRKSQEDFCGPEHSTEL
modifications: left off: 3FLAG, N-terminal, kept | 3NLS, N-terminal, state not stated | myc, N-terminal, state not stated
notes: C-terminal Cdt2 construct
- recruitment to DNA-damage sites [4]: efficiently recruited to DNA-damage sites
- interaction with PCNA (anti-FLAG IP) [6]: still binds to PCNA

- binding to DDB1 (and Cul4A) [5]: still able to bind DDB1
B2: Cdt2^1–417: Cdt2 N-terminal WD40 domain construct (protein)
chain: MLFNSVLRQPQLGVLRNGWSSQYPLQSLLTGYQCSGNDEHTSYGETGVPVPPFGCTFSSAPNMEHVLAVANEEGFVRLYNTESQSFRKKCFKEWMAHWNAVFDLAWVPGELKLVTAAGDQTAKFWDVKAGELIGTCKGHQCSLKSVAFSKFEKAVFCTGGRDGNIMVWDTRCNKKDGFYRQVNQISGAHNTSDKQTPSKPKKKQNSKGLAPSVDFQQSVTVVLFQDENTLVSAGAVDGIIKVWDLRKNYTAYRQEPIASKSFLYPGSSTRKLGYSSLILDSTGSTLFANCTDDNIYMFNMTGLKTSPVAIFNGHQNSTFYVKSSLSPDDQFLVSGSSDEAAYIWKVSTPWQPPTVLLGHSQEVTSVCWCPSDFTKIATCSDDNTLKIWRLNRGLEEKPGGDKLSTVGWASQKKKESR
modifications: left off: HA, N-terminal, state not stated | 3FLAG, C-terminal, kept
notes: Cdt2 N-terminal WD40 domain construct
- recruitment to DNA-damage sites [4]: no evidence for recruitment
- interaction with PCNA (anti-FLAG IP) [6]: lost most of its affinity for PCNA

- Kd [7]: 36 ± 2 nM
Molecule: RRQTSMTDFYHSKR (p21 PIP box peptide) [p21 PIP box peptide]

- Kd [7]: 57 ± 3 nM
B3: Cdt2^PIP-TAMRA (704–717) (peptide)
peptide: {TAMRA}-SSMRKICTYFHRKS
notes: human Cdt2 PIP box, residues 704-717; also called Cdt2 PIP box peptide; source: synthetic peptide (in-house Fmoc synthesis)
